# Experimental data from patent US20150175705A1.
# T1: human prolactin receptor (PRLR) expressed on cells (human) (UniProt P16471)
# T1 sequence: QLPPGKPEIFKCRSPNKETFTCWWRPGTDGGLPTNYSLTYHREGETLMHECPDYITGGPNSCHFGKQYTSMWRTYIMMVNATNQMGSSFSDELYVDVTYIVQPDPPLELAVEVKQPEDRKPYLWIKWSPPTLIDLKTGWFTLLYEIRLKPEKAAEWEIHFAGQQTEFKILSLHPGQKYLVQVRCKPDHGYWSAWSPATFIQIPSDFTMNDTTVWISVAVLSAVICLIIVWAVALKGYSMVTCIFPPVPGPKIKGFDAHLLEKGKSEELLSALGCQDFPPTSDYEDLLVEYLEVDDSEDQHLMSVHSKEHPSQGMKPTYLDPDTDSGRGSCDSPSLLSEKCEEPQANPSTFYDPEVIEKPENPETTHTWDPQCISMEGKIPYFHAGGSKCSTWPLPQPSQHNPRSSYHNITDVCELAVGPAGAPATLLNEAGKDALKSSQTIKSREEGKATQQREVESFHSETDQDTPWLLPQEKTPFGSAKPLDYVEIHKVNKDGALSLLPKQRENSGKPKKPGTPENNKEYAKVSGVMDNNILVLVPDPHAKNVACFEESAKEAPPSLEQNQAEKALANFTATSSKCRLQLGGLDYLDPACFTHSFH
# Columns and labels:
# [1] = molecular target: T1, human prolactin receptor (PRLR) expressed on cells (human); assay: flow cytometry on CHO-K1 cells expressing human PRLR (clone 1G5)
# [2] = molecular target: T1, human prolactin receptor (PRLR) expressed on cells (human); assay: cell-based or functional assay
Molecule,MFI [1] [MFI],pERK1/2 inhibition IC50 [2]
"mAb 1167, control murine anti-PRLR monoclonal antibody (R&D Systems, catalog # MAB 1167)",33.8,
"XHA.06.983 (antibody, from another filing, V domains shown) VH: DVQLVESGGGLVQPGGSRKLSCAASGFAFSSFGMQWVRQAPEKGLEWVAYISSGSSTIYYADTVKGRFTISRDNPKNTLFLQMTSLRSEDTAMYYCVRSGRDYWGQGTSVTVSS VL: SIVMTQTPKFLLVSAGDRVTITCKASQGVSNDVAWFQQKPGQSPKLLIYSASTRYTGVPDRLTGSGYGTDFTFTINTVQAEDLAVYFCQQDYTSPTFGGGTKLEIKR",,0.11
